# Laboratory results reported in patent US20050050591A1 (published 2005).
# B1: MtCycDm, novel D-type cyclin of Medicago truncatula (two-hybrid prey, GAL4 activation domain fusion) (other, not shown: large carriers)
# chain: MIEEEQLPAILMPSDCELLCGEDSSEVLTGDLPECSSDLDSSSSSQLPSSSLFAEEEEDSIAVFIEHEFKFVPGFDYVSRFQSRSLESSTREEAIAWILKVHEYYGFQPLTAYLSVNYMDRFLDSRPLPGIKWMATATFICCMFVFSSKDGGPLVPSLLDFQIEGAKYIFQPRTMLIMELLVLTILDWRLRSITHLVSSVSLRATRFTGTFNHFIISRATEIILSNIRDASFLTYRPSCIAAAAILSAANEIPNWSFVNPEHAESWCEGLSKEKIIGCYELIQEIVSSNNRRNAPKVLPQLRVTARTTRWSTVSSLSSSPSSSSSPSYSLSYKKRKLNSCFWVDVDKGNSEGREKKQTR
# notes: Tested only as a yeast two-hybrid fusion; The order GAL4 domain then insert follows the vector design; also called cyclin D of the invention; MTCYCDM gene product
# Molecular target: Cdc2MsB, A-type cyclin-dependent kinase of Medicago sativa (two-hybrid bait, GAL4 DNA binding domain fusion) (Medicago sativa, UniProt P04386 1-147; Q05006 1-294)
# Experiment: yeast two-hybrid (growth on selective medium, beta-galactosidase)
# Text: FIG. 5. Interaction in a yeast two-hybrid assay of alfalfa Cdc2-type or Cdc2-related kinases and different D-type cyclins and myosin. The different Cdc2Ms kinase cDNAs are cloned in the pGBT9 bait vector and the cDNAs of the interacting partners in the pGAD424 activation domain vector. (A) Growth of PJ69-4a yeast cells transformed with expression vectors comprising the indicated protein coding sequences on the agar surface of a selective medium lacking tryptophan, leucine, adenine and histidine. The relative growth values were also determined in liquid cultures and are numerically indicated. (B) Quantification of β-galactosidase enzyme acitivity of yeast strains described in (A).
# The yeast strain PJ69-4A [MATa trp1-901, leu2-3,112 ura3-52, his3-200 gal4delta, gal80delta GAL2-ADE2, LYS2:: GAL1-HIS3, met2::GAL7-lacZ] (James et al. 1996), which contains three reporter genes (HIS3, ADE2 and lacZ), was used in library screening, growth tests and β-galactosidase assays. Transformation of yeast with pGBT9, pGAD424, pBD-GAL4 and pAD-GAL4 constructs was performed as described by Schiesti and Gietz (1989). The transformation mixture was plated on yeast dropout selection media either lacking leucine and tryptophan (SD-Trp-Leu) for testing the transformation efficiency or on media lacking leucine, tryptophan and histidine, for testing protein-protein interactions. […]
binder,measurement,value
B1,binding result,no binding
